Reference: publication PMC11192767, “A cocktail nanovaccine targeting key entry glycoproteins elicits high neutralizing antibody levels against EBV infection” (Nature Communications, 2024)

Biological target: the molecule itself
Assay: native gel or EMSA; gB before encapsulation and gB released from nanoparticles, analysed under native non-reducing conditions (Fig. S5A)

B1: EBV gB ectodomain (residues 22 to 672, fusion-loop residues replaced with HSV-1 residues), 6x His tag (domain or fragment)
chain: AQTPEQPAPPATTVQPTATRQQTSFPFRVCELSSHGDLFRFSSDIQCPSFGTRENHTEGLLMVFKDNIIPYSFKVRSYTKIVTNILIYNGHRADSVTNRHEEKFSVDSYETDQMDTIYQCYNAVKMTKDGLTRVYVDRDGVNITVNLKPTGGLANGVRRYASQTELYDAPGRVEATYRTRTTVNCLITDMMAKSNSPFDFFVTTTGQTVEMSPFYDGKNKETFHERADSFHVRTNYKIVDYDNRGTNPQGERRAFLDKGTYTLSWKLENRTAYCPLQHWQTFDSTIATETGKSIHFVTDEGTSSFVTNTTVGIELPDAFKCIEEQVNKTMHEKYEAVQDRYTKGQEAITYFITSGGLLLAWLPLTPRSLATVKNLTELTTPTSSPPSSPSPPAPSAARGSTPAAVLRRRRRDAGNATTPVPPTAPGKSLGTLNNPATVQIQFAYDSLRRQINRMLGDLARAWCLEQKRQNMVLRELTKINPTTVMSSIYGKAVAAKRLGDVISVSQCVPVNQATVTLRKSMRVPGSETMCYSRPLVSFSFINDTKTYEGQLGTDNEIFLTKKMTEVCQATSQYYFQSGNEIHVYNDYHHFKTIELDGIATLQTFISLNTSLIENIDFASLELYSRDEQRASNVFDLEGIFREYNFQAQNIA
notes: Epstein-Barr virus glycoprotein B (gB), ectodomain residues 22 to 672, PCR-amplified from the EBV M81 strain (GenBank KF373730.1); WY112-113 and WLIW193-196 replaced with HSV-1 residues HR177-178 and RVEA258-261; Tested both before encapsulation and after release from the nanoparticles; also called glycoprotein B; fusogen gB; source: 293F cells, transiently transfected (pCDNA3.1-gB), purified …
  stoichiometry N: 3
